Source: patent US20250388663A1 (INSTITUT NATIONAL DE LA SANT ET DE LA RECHERCHE M DICALE, published 2025)

Assays:
[1] = target: human serum albumin (human) (UniProt P02768); test: SPR (openSPR), control channel blocked with the non-relevant sdAb and ethanolamine, albumin perfused; settings: scale: % of binding to OptiAlb-12-coated channels
mouse serum albumin [2] = target: T1, mouse serum albumin (mouse, UniProt P07724 25-608); test: as above; settings: scale: % of binding to OptiAlb-12-coated channels
T1 construct: also called MSA; murine serum albumin

mouse serum albumin [3] = target: T1, mouse serum albumin; test: ELISA, MSA coated at 2 ug/ml, nanobody titrated, anti-cMyc-HRP detection
Method: After washing wells with PBS/0.1% Tween-20, wells were blocked by incubating with PBS/1% bovine serum albumin (BSA) for 1 h at 37° C. […] After three washes with PBS/0.1% Tween-20, bound proteins were probed using polyclonal peroxidase-labelled anti-cMyc antibodies (1:5,000 dilution), and detected via hydrolysis of 3,3′,5,5′-tetramethylbenzidine.

T1 sequence (P07724 25-608 limits assumed): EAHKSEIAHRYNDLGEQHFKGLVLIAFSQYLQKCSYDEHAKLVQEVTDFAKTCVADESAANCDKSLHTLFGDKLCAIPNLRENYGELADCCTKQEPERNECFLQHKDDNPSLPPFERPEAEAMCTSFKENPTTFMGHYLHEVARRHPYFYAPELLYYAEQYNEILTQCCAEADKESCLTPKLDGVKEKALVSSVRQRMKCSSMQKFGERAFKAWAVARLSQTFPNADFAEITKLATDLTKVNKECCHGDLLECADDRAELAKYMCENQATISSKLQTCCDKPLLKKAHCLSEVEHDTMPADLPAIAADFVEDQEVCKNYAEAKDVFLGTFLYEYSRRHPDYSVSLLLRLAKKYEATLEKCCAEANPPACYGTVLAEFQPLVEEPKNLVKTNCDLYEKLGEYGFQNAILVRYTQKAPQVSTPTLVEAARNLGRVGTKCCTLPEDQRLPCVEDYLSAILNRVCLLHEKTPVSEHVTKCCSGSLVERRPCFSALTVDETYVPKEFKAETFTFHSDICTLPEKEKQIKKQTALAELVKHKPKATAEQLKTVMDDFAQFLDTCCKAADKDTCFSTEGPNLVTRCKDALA

Row | binding to the control channel as percent of binding to OptiAlb-12-coated channels [1] | binding to the control channel as percent of binding to OptiAlb-12-coated channels (mouse serum albumin [2]) | binding result (mouse serum albumin [3]) | Molecule
1 | < 3 | < 3 |  | non-relevant single-domain antibody (VHH)
2 |  |  | binds | OptiAlb-11 (VHH, not shown: C-terminal histidine- and cMyc-tag from the pHEN6 plasmid) VHH: EVQLVESGGGLVQPGNSLRLSCAASGFTFSSFGMSWVRQAPGKGPEWVSSISGSGHDTLYADSVKGRFTISRDNAKTTLYLQMNSLRPEDTAVYYCTIGGSLTRSSQGTLVTVSS
